Experimental data published in doi:10.1101/2025.05.30.657017.
pKd: −log10 of the molar value. Values belong to the substance of their own block, whether it stands above or below them.

How the values were obtained:
[1] = target: MtrR, endogenous in M. mazei (Methanosarcina mazei (endogenous in M. mazei)); experiment: western blot of the strep-tactin eluate
[2] = target: strep-tagged soluble domain of the MtrA subunit (M1 - S168), RED labeled (Methanosarcina mazei) (UniProt O59640); experiment: MST
Sequence of UniProt O59640 (O59640 1-168): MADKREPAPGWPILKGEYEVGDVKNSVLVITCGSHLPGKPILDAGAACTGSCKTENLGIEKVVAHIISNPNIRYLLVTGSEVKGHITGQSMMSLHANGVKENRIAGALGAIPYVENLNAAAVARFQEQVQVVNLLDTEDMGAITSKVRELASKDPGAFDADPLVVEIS

[3] = target: MtrR-His6 constitutively expressed in M. mazei (pRS2087) (Methanosarcina mazei Gö1); experiment: IMAC purification and western blot

stoichiometry N [1]: 2
Substance: MtrR, endogenous in M. mazei (natural protein)

pKd [2]: 6.96
Substance: MtrR-His6 (small protein MtrR encoded by small ORF16, C-terminal his-tag), heterologously expressed in E. coli (natural protein)

stoichiometry N [3]: 2
Substance: MtrR-His6 constitutively expressed in M. mazei (pRS2087) (natural protein)
